# B1: Durvalumab: human IgG1 monoclonal antibody that selectively binds PD-L1 and blocks binding to PD-1 and CD80; VL SEQ ID NO: 1, VH SEQ ID NO: 2 (antibody, V domains shown)
# VH: EVQLVESGGGLVQPGGSLRLSCAASGFTFSRYWMSWVRQAPGKGLEWVANIKQDGSEKYYVDSVKGRFTISRDNAKNSLYLQMNSLRAEDTAVYYCAREGGWFGELAFDYWGQGTLVTVSS
# VL: EIVLTQSPGTLSLSPGERATLSCRASQRVSSSYLAWYQQKPGQAPRLLIYDASSRATGIPDRFSGSGSGTDFTLTISRLEPEDFAVYYCQQYGSLPWTFGQGTKVEIK
# What was measured:
# [1] = test system: patients with platinum-refractory disease; settings: second-line; cited from earlier work
# human CTLA-4 = human CTLA-4 (Homo sapiens, UniProt P16410); settings: cited from earlier work
# Fc receptors = settings: cited from earlier work
# [2] = test system: natural killer (NK) ADCC activity; settings: cited from earlier work
# patients with ES-SCLC [3] = test: CASPIAN phase 3 trial: overall survival and progression-free survival, intention-to-treat population; format: in vivo, human; settings: ITT
# Protocol: (§1) Eligible patients included adults with histologically or cytologically documented ES-SCLC and were treatment naïve. […] Patients with brain metastases were eligible provided they were asymptomatic or treated and stable off steroids and anticonvulsants for at least 1 month prior to study entry.
# Randomization was stratified according to planned platinum agent.
# Survival was assessed every 2 months following treatment discontinuation.
# The primary endpoint was OS (time from randomization to death from any cause). Secondary endpoints included progression-free survival (PFS; time from randomization to the date of objective disease progression or death from any cause in the absence of progression), objective response rate (ORR), OS at 18 and 24 months, PFS at 6 and 12 months, and safety. PFS and ORR were assessed according to RECIST v1.1.
# patients with ES-SCLC [4] = test: CASPIAN phase 3 trial: tumor response per RECIST v1.1 (objective response, duration of response); format: in vivo, human; settings: for Odds ratio (95% CI) for ORR versus EP: logistic regression adjusted for platinum agent
# Protocol: as §1
# Randomization was stratified according to planned platinum agent. […]
# The primary endpoint was OS (time from randomization to death from any cause). […] PFS and ORR were assessed according to RECIST v1.1.
# patients with ES-SCLC [5] = settings: in vivo
# Protocol: (§2) Patients were randomized in a 1:1:1 ratio to receive durvalumab 1500 mg plus EP, durvalumab 1500 mg plus tremelimumab 75 mg plus EP, or EP (FIG. 1). Across all three study arms, chemotherapy consisted of etoposide 80-100 mg/m^2 (administered on days 1 to 3 of each cycle), with either carboplatin area under the curve 5-6 mg/mL/min or cisplatin 75-80 mg/m^2 (administered on day 1 of each cycle). Randomization was stratified according to planned platinum agent. Patients in the immunotherapy arms received up to 4 cycles of EP plus durvalumab every 3 weeks (q3w) followed by maintenance durvalumab 1500 mg every 4 weeks (q4w). Patients in the EP arm could receive an additional 2 cycles of EP (up to 6 cycles total) and prophylactic cranial irradiation (PCI). Patients continued treatment until Response Evaluation Criteria in Solid Tumor version 1.1 (RECIST v1.1)-defined disease progression, unacceptable toxicity, or other discontinuation criteria were met. Continuation of study treatment following disease progression was permitted if there was evidence of clinical benefit (FIG. 1). In-study crossover from the EP to the immunotherapy plus EP arms was not allowed.
# (§3) Tumor imaging was performed every 6 weeks for the first 12 weeks, and every 8 weeks thereafter, until confirmed objective disease progression. Survival was assessed every 2 months following treatment discontinuation.
# (§4) All patients who received at least one dose of study treatment were included in safety analyses.
# patients with ES-SCLC [6] = test: CASPIAN phase 3 trial: treatment-related adverse events (safety population)
# Protocol: as §2, §3, §4
# [7] = test system: PD-L1-mediated suppression of human T-cell activation; settings: in vitro; cited from earlier work
# xenograft model = settings: cited from earlier work
# [8] = final analysis, Kaplan-Meier, listed as D+EP
# Sequence of human CTLA-4 (P16410 36-223): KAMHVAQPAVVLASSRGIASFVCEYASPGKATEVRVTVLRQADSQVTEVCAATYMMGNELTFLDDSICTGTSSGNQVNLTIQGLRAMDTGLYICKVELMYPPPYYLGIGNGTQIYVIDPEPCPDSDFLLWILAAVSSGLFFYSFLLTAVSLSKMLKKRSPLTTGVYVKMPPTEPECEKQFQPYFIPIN
molecule,measurement,setting,value
CC[C@@]1(O)C(=O)OCc2c1cc1n(c2=O)Cc2cc3c(CN(C)C)c(O)ccc3nc2-1 [topotecan],one-year survival rate,[1],9%
same,response rates,[1],5%
"Tremelimumab: antibody that selectively binds a CTLA-4 polypeptide, as disclosed in U.S. Pat. No. 8,491,895",cross-reactivity to related human proteins,human CTLA-4,no cross-reactivity to related human proteins
same,specific binding to Fc receptors,Fc receptors,minimal specific binding to Fc receptors
same,induction of NK ADCC activity,[2],does not induce natural killer (NK) antibody-dependent cell-mediated cytotoxicity (ADCC) activity
Durvalumab + EP,patients who had died,patients with ES-SCLC [3]; final analysis data cutoff,78%
same,patients who had disease progression or died,patients with ES-SCLC [3]; final data cutoff,87%
same,12-month PFS rate,patients with ES-SCLC [3]; final/updated analysis,17.9%
same,24-month PFS rate,patients with ES-SCLC [3]; final/updated analysis,11.0%
same,HR for PFS versus EP,patients with ES-SCLC [3]; final/updated analysis,0.80
same,Median OS,patients with ES-SCLC [3]; final/updated analysis,12.9 months
same,Median PFS,patients with ES-SCLC [3]; final/updated analysis,5.1 months
same,HR for OS versus EP,"patients with ES-SCLC [3]; final/updated analysis, Cox model stratified by platinum agent",0.75
same,24-month OS rate,"patients with ES-SCLC [3]; final/updated analysis, Kaplan-Meier",22.2%
same,Best objective response: Complete response,patients with ES-SCLC [4]; final analysis,7 (3) n (%)
same,Best objective response: Not evaluable,patients with ES-SCLC [4]; final analysis,3 (1) n (%)
same,Best objective response: Partial response,patients with ES-SCLC [4]; final analysis,175 (65) n (%)
same,Best objective response: Progressive disease,patients with ES-SCLC [4]; final analysis,32 (12) n (%)
same,Best objective response: Stable disease for at least 6 weeks,patients with ES-SCLC [4]; final analysis,20 (7) n (%)
same,Best objective response: Unconfirmed response,patients with ES-SCLC [4]; final analysis,31 (12) n (%)
same,"Best reduction from baseline in target lesion size, Mean (SD)",patients with ES-SCLC [4]; final analysis,−57.0 (24.59) %
same,"Best reduction from baseline in target lesion size, Median (IQR)",patients with ES-SCLC [4]; final analysis,"−60.4 (−72.9, −44.3) %"
same,"Odds ratio vs EP (95% CI), confirmed objective response",patients with ES-SCLC [4]; final analysis,1.53 (1.08-2.18)
same,"Odds ratio vs EP (95% CI), unconfirmed objective response",patients with ES-SCLC [4]; final analysis,1.61 (1.09-2.40)
same,Remaining in response at 6 months (95% CI),"patients with ES-SCLC [4]; final analysis, Kaplan-Meier",39.3 (32.2-46.3) %
same,Remaining in response at 12 months (95% CI),"patients with ES-SCLC [4]; final analysis, Kaplan-Meier",23.2 (17.3-29.7) %
same,Remaining in response at 24 months (95% CI),"patients with ES-SCLC [4]; final analysis, Kaplan-Meier",13.5 (8.7-19.3) %
same,Remaining in response at 12 months (95% CI),patients with ES-SCLC [4]; [8],23.2%
same,Remaining in response at 24 months (95% CI),patients with ES-SCLC [4]; [8],13.5%
same,Median (95% CI) duration of response,"patients with ES-SCLC [4]; final analysis, confirmed responders, Kaplan-Meier",5.1 (4.9-5.3) months
same,"Best reduction from baseline in target lesion size, Median (IQR)","patients with ES-SCLC [4]; final analysis, listed as D+EP",−60.4%
same,"Odds ratio vs EP (95% CI), confirmed objective response","patients with ES-SCLC [4]; final analysis, listed as D+EP",1.53
same,confirmed objective response,"patients with ES-SCLC [4]; final analysis, post hoc",68%
same,Best objective response: Not evaluable,patients with ES-SCLC [4]; interim analysis,3 (1.1) n (%)
same,Best objective response: Progressive disease,patients with ES-SCLC [4]; interim analysis,32 (11.9) n (%)
same,Best objective response: Stable disease ≥6 weeks,patients with ES-SCLC [4]; interim analysis,20 (7.5) n (%)
same,Remaining in response at 6 months,patients with ES-SCLC [4]; interim analysis,39.3%
same,Remaining in response at 12 months,patients with ES-SCLC [4]; interim analysis,22.7%
same,confirmed ORR,patients with ES-SCLC [4]; interim analysis,67.9%
same,confirmed complete response,patients with ES-SCLC [4]; interim analysis,2.2%
same,ORR (confirmed),"patients with ES-SCLC [4]; interim analysis, RECIST v1.1",182 (67.9) n (%)
same,Best objective response: Complete response,"patients with ES-SCLC [4]; interim analysis, confirmed",6 (2.2) n (%)
same,Best objective response: Partial response,"patients with ES-SCLC [4]; interim analysis, confirmed",176 (65.7) n (%)
same,Median DoR (95% CI),"patients with ES-SCLC [4]; interim analysis, confirmed responders",5.1 (4.9-5.3) months
same,Median DoR (95% CI),"patients with ES-SCLC [4]; interim analysis, confirmed responders, listed as durvalumab plus EP",5.1 months
same,Odds ratio (95% CI) for ORR versus EP,patients with ES-SCLC [4]; interim analysis,1.56 (1.095-2.218)
same,Odds ratio (95% CI) for ORR versus EP,"patients with ES-SCLC [4]; interim analysis, listed as durvalumab plus EP",1.56
same,"unconfirmed and confirmed objective response rates, amount higher versus EP",patients with ES-SCLC [4]; updated analysis,approximately 10%
same,Any treatment-related event leading to death,patients with ES-SCLC [5],6 (2) n (%)
same,"Alopecia, treatment-related",patients with ES-SCLC [6]; Any grade,75 (28) n (%)
same,"Anaemia, treatment-related",patients with ES-SCLC [6]; Any grade,85 (32) n (%)
same,Any treatment-related event,patients with ES-SCLC [6]; Any grade,237 (89) n (%)
same,Any treatment-related event leading to discontinuation,patients with ES-SCLC [6]; Any grade,16 (6) n (%)
same,Any treatment-related serious event,patients with ES-SCLC [6]; Any grade,35 (13) n (%)
same,"Asthenia, treatment-related",patients with ES-SCLC [6]; Any grade,27 (10) n (%)
same,"Constipation, treatment-related",patients with ES-SCLC [6]; Any grade,23 (9) n (%)
same,"Decreased appetite, treatment-related",patients with ES-SCLC [6]; Any grade,33 (12) n (%)
same,"Diarrhoea, treatment-related",patients with ES-SCLC [6]; Any grade,17 (6) n (%)
same,"Fatigue, treatment-related",patients with ES-SCLC [6]; Any grade,30 (11) n (%)
same,"Febrile neutropenia, treatment-related",patients with ES-SCLC [6]; Any grade,15 (6) n (%)
same,"Hyperthyroidism, treatment-related",patients with ES-SCLC [6]; Any grade,22 (8) n (%)
same,"Hypothyroidism, treatment-related",patients with ES-SCLC [6]; Any grade,23 (9) n (%)
same,"Leucopenia, treatment-related",patients with ES-SCLC [6]; Any grade,36 (14) n (%)
same,"Lipase increased, treatment-related",patients with ES-SCLC [6]; Any grade,10 (4) n (%)
same,"Nausea, treatment-related",patients with ES-SCLC [6]; Any grade,74 (28) n (%)
same,"Neutropenia, treatment-related",patients with ES-SCLC [6]; Any grade,104 (39) n (%)
same,"Neutrophil count decreased, treatment-related",patients with ES-SCLC [6]; Any grade,24 (9) n (%)
same,"Paraesthesia, treatment-related",patients with ES-SCLC [6]; Any grade,14 (5) n (%)
same,"Platelet count decreased, treatment-related",patients with ES-SCLC [6]; Any grade,14 (5) n (%)
same,"Pruritus, treatment-related",patients with ES-SCLC [6]; Any grade,11 (4) n (%)
same,"Rash, treatment-related",patients with ES-SCLC [6]; Any grade,10 (4) n (%)
same,"Thrombocytopenia, treatment-related",patients with ES-SCLC [6]; Any grade,37 (14) n (%)
same,"Vomiting, treatment-related",patients with ES-SCLC [6]; Any grade,32 (12) n (%)
same,"White blood cell count decreased, treatment-related",patients with ES-SCLC [6]; Any grade,12 (5) n (%)
same,"Alopecia, treatment-related",patients with ES-SCLC [6]; Grade 3 or 4,3 (1) n (%)
same,"Anaemia, treatment-related",patients with ES-SCLC [6]; Grade 3 or 4,21 (8) n (%)
same,Any treatment-related event,patients with ES-SCLC [6]; Grade 3 or 4,121 (46) n (%)
same,Any treatment-related event leading to discontinuation,patients with ES-SCLC [6]; Grade 3 or 4,3 (1) n (%)
same,Any treatment-related serious event,patients with ES-SCLC [6]; Grade 3 or 4,25 (9) n (%)
same,"Asthenia, treatment-related",patients with ES-SCLC [6]; Grade 3 or 4,2 (1) n (%)
same,"Constipation, treatment-related",patients with ES-SCLC [6]; Grade 3 or 4,0 n (%)
same,"Decreased appetite, treatment-related",patients with ES-SCLC [6]; Grade 3 or 4,1 (<1) n (%)
same,"Diarrhoea, treatment-related",patients with ES-SCLC [6]; Grade 3 or 4,2 (1) n (%)
same,"Fatigue, treatment-related",patients with ES-SCLC [6]; Grade 3 or 4,2 (1) n (%)
same,"Febrile neutropenia, treatment-related",patients with ES-SCLC [6]; Grade 3 or 4,13 (5) n (%)
same,"Hyperthyroidism, treatment-related",patients with ES-SCLC [6]; Grade 3 or 4,0 n (%)
same,"Hypothyroidism, treatment-related",patients with ES-SCLC [6]; Grade 3 or 4,0 n (%)
same,"Leucopenia, treatment-related",patients with ES-SCLC [6]; Grade 3 or 4,15 (6) n (%)
same,"Lipase increased, treatment-related",patients with ES-SCLC [6]; Grade 3 or 4,8 (3) n (%)
same,"Nausea, treatment-related",patients with ES-SCLC [6]; Grade 3 or 4,0 n (%)
same,"Neutropenia, treatment-related",patients with ES-SCLC [6]; Grade 3 or 4,61 (23) n (%)
same,"Neutrophil count decreased, treatment-related",patients with ES-SCLC [6]; Grade 3 or 4,16 (6) n (%)
same,"Paraesthesia, treatment-related",patients with ES-SCLC [6]; Grade 3 or 4,0 n (%)
same,"Platelet count decreased, treatment-related",patients with ES-SCLC [6]; Grade 3 or 4,4 (2) n (%)
same,"Pruritus, treatment-related",patients with ES-SCLC [6]; Grade 3 or 4,0 n (%)
same,"Rash, treatment-related",patients with ES-SCLC [6]; Grade 3 or 4,0 n (%)
same,"Thrombocytopenia, treatment-related",patients with ES-SCLC [6]; Grade 3 or 4,14 (5) n (%)
same,"Vomiting, treatment-related",patients with ES-SCLC [6]; Grade 3 or 4,0 n (%)
same,"White blood cell count decreased, treatment-related",patients with ES-SCLC [6]; Grade 3 or 4,4 (2) n (%)
B1,relief of PD-L1-mediated suppression of human T-cell activation,[7],can relieve PD-L1-mediated suppression of human T-cell activation in vitro
same,tumor growth inhibition,xenograft model,inhibits tumor growth in a xenograft model via a T-cell dependent mechanism
